The target in experiment [1] is T1, FcγRIIb extracellular domain with C-terminal His tag (human, UniProt P31994 43-217).
T1 construct: extracellular domain; also called FcgRIIb; not shown: His tag at the C terminus
T1 sequence (looked up): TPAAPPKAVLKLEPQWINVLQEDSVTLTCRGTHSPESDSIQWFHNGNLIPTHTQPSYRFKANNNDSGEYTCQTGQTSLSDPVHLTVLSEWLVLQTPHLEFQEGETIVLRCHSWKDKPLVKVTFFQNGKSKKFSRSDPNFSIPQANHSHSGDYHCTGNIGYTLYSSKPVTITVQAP
Kind of experiment: SPR; KD of IL6R-B3/IL6R-L divided by KD of variant.

For experiment [2], the target named is T2, FcγRIIa R type extracellular domain with C-terminal His tag (human, UniProt P12318 34-217).
T2 construct: extracellular domain; also called FcgRIIaR; not shown: His tag at the C terminus
T2 sequence (looked up): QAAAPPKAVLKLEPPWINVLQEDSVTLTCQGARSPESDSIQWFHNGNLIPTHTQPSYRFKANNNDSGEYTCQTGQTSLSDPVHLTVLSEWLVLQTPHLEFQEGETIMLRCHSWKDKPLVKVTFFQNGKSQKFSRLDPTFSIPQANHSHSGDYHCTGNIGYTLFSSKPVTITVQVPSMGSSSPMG
Kind of experiment: SPR; KD of IL6R-B3/IL6R-L divided by KD of variant.

Experiment [3] concerns the target T3, FcγRIIa H type extracellular domain with C-terminal His tag (human, UniProt P12318 34-217).
T3 construct: extracellular domain; also called FcgRIIaH; not shown: His tag at the C terminus
T3 sequence (looked up): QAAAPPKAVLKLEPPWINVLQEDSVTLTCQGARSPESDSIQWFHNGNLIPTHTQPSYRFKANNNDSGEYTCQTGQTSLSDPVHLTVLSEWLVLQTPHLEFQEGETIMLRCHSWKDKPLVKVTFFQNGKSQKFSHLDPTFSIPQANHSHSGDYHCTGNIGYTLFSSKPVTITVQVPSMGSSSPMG
Kind of experiment: SPR, antibody captured, FcgR analyte.

In experiment [4] the target is T1, FcγRIIb extracellular domain with …. Kind of experiment: SPR, antibody captured, FcgR analyte. (In general: SPR reads the build-up and loss of mass on a sensor chip optically.)
Experiment [5] concerns the target T2, FcγRIIa R type extracellular domain …. Kind of experiment: SPR, antibody captured, FcgR analyte.
Experiment [6] has as its target T4, FcγRIa extracellular domain with C-terminal His tag (human, UniProt P12314 16-292).
T4 construct: also called FcgRIa; CD64; not shown: His tag at the C terminus
Kind of experiment: SPR, antibody captured, FcgR analyte.

T4 sequence (P12314 16-292): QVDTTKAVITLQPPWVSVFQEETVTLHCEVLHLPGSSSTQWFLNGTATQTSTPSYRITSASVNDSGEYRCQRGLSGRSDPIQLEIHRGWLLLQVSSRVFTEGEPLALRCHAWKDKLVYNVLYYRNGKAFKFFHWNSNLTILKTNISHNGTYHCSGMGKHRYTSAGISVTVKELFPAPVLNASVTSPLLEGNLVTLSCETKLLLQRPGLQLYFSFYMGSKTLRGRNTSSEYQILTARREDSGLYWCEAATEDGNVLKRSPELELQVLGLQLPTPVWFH

B1: IL6R-BP488/IL6R-L (antibody, human IgG1, kappa, name in EU numbering)
heavy: QVQLQESGPGLVKPSETLSLTCAVSGHSISHDHAWSWVRQPPGEGLEWIGFISYSGITNYNPSLQGRVTISRDNSKNTLYLQMNSLRAEDTAVYYCARSLARTTAMDYWGEGTLVTVSSASTKGPSVFPLAPSSKSTSGGTAALGCLVKDYFPEPVTVSWNSGALTSGVHTFPAVLQSSGLYSLSSVVTVPSSSLGTQTYICNVNHKPSNTKVDKKVEPKSCDKTHTCPPCPAPDLLGDDSVFLFPPKPKDTLMISRTPEVTCVVIDVAEEDGEVKFNWYVDGVEVHNAKTKPREEQDNSTYRVVSVLTVLHQDWLNGKEYKCKVSNKALPRPIEKTISKAKGQPREPQVYTLPPSRDELTKNQVSLTCLVKGFYPSDIAVEWESNGQPENNYKTTPPVLDSDGSFFLYSKLTVDKSRWQQGNVFSCSVMHEALHNHYTQESLSLSP
light: not shown
notes: human IgG1
For orientation: Kd means a measure of binding affinity in units of concentration. For B1, in experiment [1], the “Relative FcgRIIb-binding Activity” value came out at 1670. For the same molecule, in experiment [2], the “Relative FcgRIIaR-binding Activity” value was 14.6. Also, the Kd in experiment [3] worked out at 1.6 µM; in experiment [4] it was 0.0019 µM; in experiment [5], 0.074 µM; in experiment [6] it was 0.0022 µM.

B2: IL6R-BP438/IL6R-L (antibody, human IgG1, kappa, name in EU numbering)
heavy: QVQLQESGPGLVKPSETLSLTCAVSGHSISHDHAWSWVRQPPGEGLEWIGFISYSGITNYNPSLQGRVTISRDNSKNTLYLQMNSLRAEDTAVYYCARSLARTTAMDYWGEGTLVTVSSASTKGPSVFPLAPSSKSTSGGTAALGCLVKDYFPEPVTVSWNSGALTSGVHTFPAVLQSSGLYSLSSVVTVPSSSLGTQTYICNVNHKPSNTKVDKKVEPKSCDKTHTCPPCPAPDLLGDDSVFLFPPKPKDTLMISRTPEVTCVVVDVAEEDGEVKFNWYVDGVEVHNAKTKPREEQYNSTYRVVSVLTVLHQDWLNGKEYKCKVSNKALPRPTEKTISKAKGQPREPQVYTLPPSRDELTKNQVSLTCLVKGFYPSDIAVEWESNGQPENNYKTTPPVLDSDGSFFLYSKLTVDKSRWQQGNVFSCSVMHEALHNHYTQESLSLSP
light: not shown
notes: human IgG1
For B2, the Kd was 1.6 µM in experiment [3] and 0.18 µM in experiment [5].

B3: IL6R-BP558/IL6R-L (antibody, human IgG1, kappa, name in EU numbering)
heavy: QVQLQESGPGLVKPSETLSLTCAVSGHSISHDHAWSWVRQPPGEGLEWIGFISYSGITNYNPSLQGRVTISRDNSKNTLYLQMNSLRAEDTAVYYCARSLARTTAMDYWGEGTLVTVSSASTKGPSVFPLAPSSKSTSGGTAALGCLVKDYFPEPVTVSWNSGALTSGVHTFPAVLQSSGLYSLSSVVTVPSSSLGTQTYICNVNHKPSNTKVDKKVEPKSCDKTHTCPPCPAPELLGDDSVFLFPPKPKDTLMISRTPEVTCVVIDVGEEDGDVKFNWYVDGVEVHNAKTKPREEQYNSTYRVVSVLTVLHQDWLNGKEYKCKVSNKALPRPIEKTISKAKGQPREPQVYTLPPSRDELTKNQVSLTCLVKGFYPSDIAVEWESNGQPENNYKTTPPVLDSDGSFFLYSKLTVDKSRWQQGNVFSCSVMHEALHNHYTQESLSLSP
light: not shown
notes: human IgG1
With B3, the values for the equilibrium dissociation constant (Kd) in experiment [3], in experiment [4] and in experiment [5] were 4.9 µM, 0.009 µM and 0.33 µM, respectively.

B4: IL6R-BP510/IL6R-L (antibody, human IgG1, kappa, name in EU numbering)
heavy: QVQLQESGPGLVKPSETLSLTCAVSGHSISHDHAWSWVRQPPGEGLEWIGFISYSGITNYNPSLQGRVTISRDNSKNTLYLQMNSLRAEDTAVYYCARSLARTTAMDYWGEGTLVTVSSASTKGPSVFPLAPSSKSTSGGTAALGCLVKDYFPEPVTVSWNSGALTSGVHTFPAVLQSSGLYSLSSVVTVPSSSLGTQTYICNVNHKPSNTKVDKKVEPKSCDKTHTCPPCPAPELLGDDSVFLFPPKPKDTLMISRTPEVTCVVIDVAEEDGPVKFNWYVDGVEVHNAKTKPREEQYNSTYRVVSVLTVLHQDWLNGKEYKCKVSNKALPRPIEKTISKAKGQPREPQVYTLPPSRDELTKNQVSLTCLVKGFYPSDIAVEWESNGQPENNYKTTPPVLDSDGSFFLYSKLTVDKSRWQQGNVFSCSVMHEALHNHYTQESLSLSP
light: not shown
notes: human IgG1
Turning to B4, the Kd in experiment [3] is 4 µM; in experiment [4], 0.0038 µM; in experiment [6], 0.006 µM.

(Values after patent publication US20220411483A1 (Chugai, published 2022).)
